Reference: article PMC6459835, “The RNA binding activity of the first identified trypanosome protein with Z-DNA-binding domains”

What was measured:
[1] = target: T1, RBP7910 WT (Trypanosoma brucei, UniProt Q38AH3 9-189); assay: EMSA; details: RBB50: 20 mM Tris-HCl pH 7.6, 50 mM KCl, 5 mM MgCl2, 100 mg/mL BSA (so in the source), 10% glycerol, 1 mM DTT, plus 100 mM KCl and 20 U RNasin, 20 ul, 30 min, RT …
T1 sequence: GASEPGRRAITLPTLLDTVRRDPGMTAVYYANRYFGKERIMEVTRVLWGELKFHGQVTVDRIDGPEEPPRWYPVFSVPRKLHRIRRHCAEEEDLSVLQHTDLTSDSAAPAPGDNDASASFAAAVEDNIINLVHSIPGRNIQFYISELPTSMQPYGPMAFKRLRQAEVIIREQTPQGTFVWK

[2] = target: T1, RBP7910 WT; assay: competition; details: RBB50: 20 mM Tris-HCl pH 7.6, 50 mM KCl, 5 mM MgCl2, 100 mg/mL BSA (so in the source), 10% glycerol, 1 mM DTT, plus 100 mM KCl and 20 U RNasin; 20 ul, 30 min, RT …
[3] = target: T2, RBP7910 WT (Trypanosoma brucei) (UniProt Q38AH3); assay: competition; details: RBB50: 20 mM Tris-HCl pH 7.6, 50 mM KCl, 5 mM MgCl2, 100 mg/mL BSA (so in the source), 10% glycerol, 1 mM DTT, plus 100 mM KCl and 20 U RNasin, 20 ul, 30 min, RT …
T2 sequence: T1 sequence

[4] = target: T1, RBP7910 WT; assay: EMSA; 95% CI 1.25-1.97; RBB50: 20 mM Tris-HCl pH 7.6, 50 mM KCl, 5 mM MgCl2, 100 mg/mL BSA (so in the source), 10% glycerol, 1 mM DTT, plus 100 mM KCl and 20 U RNasin; 20 ul, 30 min, RT; native 10% TBE gel at 4 C; details: protein: recombinant; tags: N-terminal 6xHis (pET30-a); label: 32P (UTP body or 3' pCp)
[5] = target: T1, RBP7910 WT; assay: competition; vs labeled gA6[14]; RBB50: 20 mM Tris-HCl pH 7.6, 50 mM KCl, 5 mM MgCl2, 100 mg/mL BSA (so in the source), 10% glycerol, 1 mM DTT, plus 100 mM KCl and 20 U RNasin; 20 ul, 30 min, RT; native 10% TBE gel at 4 C; details: protein: recombinant; tags: N-terminal 6xHis (pET30-a); label: unlabeled; one predicted stem-loop, 3' oligo(U) tail
[6] = target: T1, RBP7910 WT; assay: EMSA; 1 nM labeled RNA, protein titration; specificity confirmed with unlabeled poly AU; RBB50: 20 mM Tris-HCl pH 7.6, 50 mM KCl, 5 mM MgCl2, 100 mg/mL BSA (so in the source), 10% glycerol, 1 mM DTT, plus 100 mM KCl and 20 U RNasin; 20 ul, 30 min, RT; native 10% TBE gel at 4 C; details: protein: recombinant; tags: N-terminal 6xHis (pET30-a); label: 32P

Molecule: gA6[14] (delta16G) gRNA with U-tail
- Kd ([1]; 95% CI 0.18-0.27): 0.21 nM

Molecule: poly U RNA
- binding signal (% reduction of bound labeled poly AU) [2]: 50

Molecule: GGGAUUAAAAGACAAUGUGAAUUUCUUAAGGUAAUAAAGGGAAUAAUUUUUUUUUUUUUUUU [natural CYb gRNA (gCYb[558]) with U-tail]
- binding signal (% reduction of bound labeled gA6[14]) [3]: 50

Molecule: GGGGGGACUGACAUUAAAAGAAAUGUGAAUUUUUCUCCGCUUUU [42-mer CYb gRNA (gCYb[558] USD-2A-42nt), no U-tail]
- binding signal ([3]; scale: fold less efficient competitor than natural gCYb): 10

Molecule: CYb pre-edited mRNA
- Kd ([1]; 95% CI 2.09-3.66): 2.78 nM
- binding signal (% reduction of bound labeled gA6[14]) [2]: 50

B1: CYb edited mRNA (ssRNA)
RNA: GGGAAAUAUGUUUUUUCGUGUUAGAUUUUUGUUAUUUUUUUUAUUAUUUAGAAAUUUAUGUUGUCUUUUUA
- Kd [4]: 1.57 ± 0.06 nM

B2: uridylated non-guide RNA (49 nt) (structured_RNA)
RNA: GGGUACCAGAUACAUACUAAGGAAUUCGAUAUCACUAUUUUUUUUUUUUUU
- binding signal [5]: 10 fold less efficient competitor than gA6[14]

B3: poly AU RNA (ssRNA)
RNA: GGGAUUCUUUUCGAGUCUCUUUUAUUUAUUUAUUUAUUUAUUUUUUCUCUCUUAUU
- binding result [6]: binds
